The target in one experiment is human BLyS 60-mer (human, UniProt Q9Y275). Nature of the experiment: SPR. In general terms: SPR reads the build-up and loss of mass on a sensor chip optically.
The target in another experiment is T1, cyno FcRn (cynomolgus monkey).
T1 chain 1: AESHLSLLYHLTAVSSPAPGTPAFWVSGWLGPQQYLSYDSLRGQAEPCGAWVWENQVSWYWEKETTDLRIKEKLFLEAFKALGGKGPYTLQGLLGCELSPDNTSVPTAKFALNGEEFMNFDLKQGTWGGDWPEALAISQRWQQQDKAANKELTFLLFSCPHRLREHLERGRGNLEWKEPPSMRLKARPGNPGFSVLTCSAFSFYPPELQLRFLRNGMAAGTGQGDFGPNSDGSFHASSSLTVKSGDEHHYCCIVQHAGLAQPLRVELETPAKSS
T1 chain 2: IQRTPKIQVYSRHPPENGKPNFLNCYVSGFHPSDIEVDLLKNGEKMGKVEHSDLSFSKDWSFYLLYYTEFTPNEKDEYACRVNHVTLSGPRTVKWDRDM
Description: SPR, pH 6.0.

The target in the next experiment is human FcRn (human, UniProt P55899). Nature of the experiment: SPR, pH 6.0.
Experiment [1] deals with T2, human BLyS (BAFF) trimer (human, UniProt Q9Y275). Description: competition, TACI:Fc.
Experiment [2] deals with T2, human BLyS (BAFF) trimer. Nature of the experiment: competition, BCMA:Fc.
Experiment [3] has as its target T2, human BLyS (BAFF) trimer. Description: competition, BAFF-R:Fc.
Experiment [4] has as its target T2, human BLyS (BAFF) trimer. Description: competition, BAFFR on CHO-K1 cells.

B1: Ab363A (antibody, V domains shown)
VH: QVQLQQSGAEVKKPGSSVRVSCKASGGTFNNDAINWVRQAPGQGLEWMGGIFPMFGTAKYSQNFQGRVAITADESTGTASMELSSLRSEDTAVYYCARSRDPLLYPHHALSPWGRGTMVTVSS
VL: SSELTQDPAVSVALGQTVRVTCQGDSLRYYYASWYQQKPGQAPVLVIYGKNNRPSGIPDRFSGSSSGNTASLTITGAQAEDEADYYCSSRDSSGNNWVFGGGTELTVL
In the case of B1, the binding result in the experiment with human BLyS 60-mer was “no binding”.

B2: Belimumab (antibody)
chain 1: not shown
chain 2: SSELTQDPAVSVALGQTVRVTCQGDSLRSYYASWYQQKPGQAPVLVIYGKNNRPSGIPDRFSGSSSGNTASLTITGAQAEDEADYYCSSRDSSGNHWVFGGGTELTVLGQPKAAPSVTLFPPSSEELQANKATLVCLISDFYPGAVTVAWKADSSPVKAGVETTTPSKQSNNKYAASSYLSLTPEQWKSHRSYSCQVTHEGSTVEKTVAPTECS
Regarding B2, the binding result with human BLyS 60-mer is reported as “no binding”. For the same molecule, the figures for the Kd with cyno FcRn and in the experiment with human FcRn were 760000 pM and 753000 pM, respectively. Besides, the IC50 in the experiment with human BLyS (BAFF) trimer [1] was determined as 200 pM; with human BLyS (BAFF) trimer [2], 126 pM; with human BLyS (BAFF) trimer [3], 100 pM; with human BLyS (BAFF) trimer [4] it was 30.2 pM.

A word on the Kd: it is a measure of binding affinity in units of concentration. High values mean weaker binding, low ones tighter binding. As a reminder, the IC50 is the concentration needed to halve the response being measured. Read a low IC50 as greater potency.

Values taken from patent publication US20260285996 (published 2026).
